Laboratory results published in publication PMC5787919, “A feedback regulatory model for RifQ-mediated repression of rifamycin export in Amycolatopsis mediterranei” (Microbial Cell Factories, 2018).

Molecular target: the molecule itself
Assay: SEC; gel filtration on Superdex 75, calibrated with the Low Molecular Weight kit (aprotinin 6.5 KD, ribonuclease A 14 KD, ovalbumin 44 KD; Blue Dextran 2000 for the void); molecular weight calculated from the retention time

B1: RifQ, TetR-family transcriptional regulator of Amycolatopsis mediterranei S699 (natural protein, UniProt O52558 1-242, looked up)
chain: MGKRASQPRESVWLSPRPARKHRAGESELDREKIVATAVRVLDAEGDAKFSMRLLAEELNVTPMSVYWYVANKDDLLELALDAVAGEIELPSLDDGNDWREDLRALARAWRRTMVAHPWAIRCYGEYLNIGPSSLRFTECAQAVMACSPLPLKDRSAALNVVFQYVYGFTATESRWLEHLAETGRTAEEFAAEVTGSMAAMSSTLEQGGLLERDGDQSMEQLRDRDFDRGLNWLFTGMVAGG
notes: RifQ, TetR-family regulator encoded in the rifamycin biosynthetic (rif) cluster of Amycolatopsis mediterranei S699; Cloning between NdeI and XhoI of pET22b would usually give a C-terminal His6 tag (surmised); also called His-tagged RifQ; recombinant RifQ; source: E. coli BL21(DE3), pET22b-RifQ, purified (Ni-NTA gravity column)
**Q.** Which “stoichiometry N” value does the source give for B1 here?
**A.** 2
